B1: RLuc-H6 (other)
chain: MVKQIESKTAFQEALDAAGDKLVVVDFSATDRKPWKTRGWSGPSKMIKPFFHSLSEKYSNVIFLEVDVDDAQDVASEAFGLFSFPLLPTFQFFKKGQKVGEFSGANKEKLEATINELV
B2: RLuc-F3 (other)
chain: MVKQIESKTAFQEALDAAGDKLVVVDFSATGGTPGRRNRWSGPSKMIKPFFHSLSEKYSNVIFLEVDVDDAQDVASEAFCEFCFPFLPTFQFFKKGQKVGEFSGANKEKLEATINELV
B3: mutant TRX protein E2 (HSA binder, purified) (designed binder)
chain: MVKQIESKTAFQEALDAAGDKLVVVDFSATKNEKRDVAEWSGPSKMIKPFFHSLSEKYSNVIFLEVDVDDAQDVASEAFGFFGFPVLPTFQFFKKGQKVGEFSGANKEKLEATINELV
B4: RLuc-E2 (other)
chain: MVKQIESKTAFQEALDAAGDKLVVVDFSATKNEKRDVAEWSGPSKMIKPFFHSLSEKYSNVIFLEVDVDDAQDVASEAFGFFGFPVLPTFQFFKKGQKVGEFSGANKEKLEATINELV
B5: mutant TRX protein F3 (HSA binder, purified) (designed binder)
chain: MVKQIESKTAFQEALDAAGDKLVVVDFSATGGTPGRRNRWSGPSKMIKPFFHSLSEKYSNVIFLEVDVDDAQDVASEAFCEFCFPFLPTFQFFKKGQKVGEFSGANKEKLEATINELV
B6: mutant TRX protein H6 (HSA binder, purified) (designed binder)
chain: MVKQIESKTAFQEALDAAGDKLVVVDFSATDRKPWKTRGWSGPSKMIKPFFHSLSEKYSNVIFLEVDVDDAQDVASEAFGLFSFPLLPTFQFFKKGQKVGEFSGANKEKLEATINELV

Molecular target: human serum albumin (human, UniProt P02768 25-609)
Test: SPR

Q: For B1, which Kd is on record?
A: 2460 nM

Q: For B2, which Kd is on record?
A: 640 nM

Q: How did the Kd turn out when B3 was run?
A: 830 nM

Q: B4 was tested. Which Kd did it give?
A: 1300 nM

Q: For B5, which Kd is on record?
A: 520 nM

Q: Which Kd does the source give for B6 here?
A: 870 nM
